B1: humanized R12 ROR1 CAR (other)
chain: QVQLVESGGALVQPGGSLTLSCKASGFDFSAYYMSWVRQAPGKGLEWIATIYPSSGKTYYAASVQGRFTISADNAKNTVYLQMNSLTAADTATYFCARDSYADDGALFNIWGQGTLVTVSSGGGGSGGGGSGGGGSQLVLTQSPSVSAALGSSAKITCTLSSAHKTDTIDWYQQLAGQAPRYLMYVQSDGSYEKRSGVPDRFSGSSSGADRYLIISSVQADDEADYYCGADYIGGYVFGGGTQLTVGESKYGPPCPPCPMFWVLVVVGGVLACYSLLVTVAFIIFWVKRGRKKLLYIFKQPFMRPVQTTQEEDGCSCRFPEEEEGGCELRVKFSRSADAPAYQQGQNQLYNELNLGRREEYDVLDKRRGRDPEMGGKPRRKNPQEGLYNELQKDKMAEAYSEIGMKGERRRGKGHDGLYQGLSTATKDTYDALHMQALPPR
notes: Chimeric antigen receptor with an scFv targeting domain, on primary human T cells; also called hR12 CAR; hR12
B2: humanized 2A2 ROR1 CAR (other)
chain: EVQLVQSGAEVKKPGASVKVSCKASGYTFSDYEMHWVRQAPGQGLEWLGAIDPETGGTAYNQKFKGRVTMTGDTSISTAYMELSRLTSDDTAVYYCTGYYDYDSFTYWGQGTLVSVSSGGGGSGGGGSGGGGSDIQMTQSPSSLSTSVGDRVTITCKASQNVDAAVAWYQQKPGKAPKLLIYSASNRYTGVASRFSGSGSGTDFTFTISSLQSEDLADYFCQQYDIYPYTFGQGTKLEIKESKYGPPCPPCPMFWVLVVVGGVLACYSLLVTVAFIIFWVKRGRKKLLYIFKQPFMRPVQTTQEEDGCSCRFPEEEEGGCELRVKFSRSADAPAYQQGQNQLYNELNLGRREEYDVLDKRRGRDPEMGGKPRRKNPQEGLYNELQKDKMAEAYSEIGMKGERRRGKGHDGLYQGLSTATKDTYDALHMQALPPR
notes: Chimeric antigen receptor with an scFv targeting domain, expressed on primary human T cells after lentiviral transduction; also called h2A2 CAR; h2A2
B3: non-humanized R12 ROR1 CAR (other)
chain: QEQLVESGGRLVTPGGSLTLSCKASGFDFSAYYMSWVRQAPGKGLEWIATIYPSSGKTYYATWVNGRFTISSDNAQNTVDLQMNSLTAADRATYFCARDSYADDGALFNIWGPGTLVTISSGGGGSGGGGSGGGGSELVLTQSPSVSAALGSPAKITCTLSSAHKTDTIDWYQQLQGEAPRYLMQVQSDGSYTKRPGVPDRFSGSSSGADRYLIIPSVQADDEADYYCGADYIGGYVFGGGTQLTVTG
notes: Chimeric antigen receptor on primary human T cells; also called R12 CAR; non-humanized R12 CAR; not shown: spacer, transmembrane, 4-1BB and CD3z parts of the non-humanized CAR are not spelled out; construct described only by re
B4: non-humanized 2A2 ROR1 CAR (other)
chain: QVQLQQSGAELVRPGASVTLSCKASGYTFSDYEMHWVIQTPVHGLEWIGAIDPETGGTAYNQKFKGKAILTADKSSSTAYMELRSLTSEDSAVYYCTGYYDYDSFTYWGQGTLVTVSAGGGGSGGGGSGGGGSDIVMTQSQKIMSTTVGDRVSITCKASQNVDAAVAWYQQKPGQSPKLLIYSASNRYTGVPDRFTGSGSGTDFTLTISNMQSEDLADYFCQQYDIYPYTFGGGTKLEIK
notes: Chimeric antigen receptor on primary human T cells; also called 2A2 CAR; non-humanized 2A2 CAR; not shown: spacer, transmembrane, 4-1BB and CD3z parts of the non-humanized CAR are not spelled out; construct described only by re

Target: ROR1 on ROR1-positive target cells (K562-ROR1, MDA-MB-231, A549) (human, UniProt Q01973 30-937)
Assay: cell-based or functional assay

ROR1 on ROR1-positive target cells (K562-ROR1, MDA-MB-231, A549), sequence (Q01973 30-937): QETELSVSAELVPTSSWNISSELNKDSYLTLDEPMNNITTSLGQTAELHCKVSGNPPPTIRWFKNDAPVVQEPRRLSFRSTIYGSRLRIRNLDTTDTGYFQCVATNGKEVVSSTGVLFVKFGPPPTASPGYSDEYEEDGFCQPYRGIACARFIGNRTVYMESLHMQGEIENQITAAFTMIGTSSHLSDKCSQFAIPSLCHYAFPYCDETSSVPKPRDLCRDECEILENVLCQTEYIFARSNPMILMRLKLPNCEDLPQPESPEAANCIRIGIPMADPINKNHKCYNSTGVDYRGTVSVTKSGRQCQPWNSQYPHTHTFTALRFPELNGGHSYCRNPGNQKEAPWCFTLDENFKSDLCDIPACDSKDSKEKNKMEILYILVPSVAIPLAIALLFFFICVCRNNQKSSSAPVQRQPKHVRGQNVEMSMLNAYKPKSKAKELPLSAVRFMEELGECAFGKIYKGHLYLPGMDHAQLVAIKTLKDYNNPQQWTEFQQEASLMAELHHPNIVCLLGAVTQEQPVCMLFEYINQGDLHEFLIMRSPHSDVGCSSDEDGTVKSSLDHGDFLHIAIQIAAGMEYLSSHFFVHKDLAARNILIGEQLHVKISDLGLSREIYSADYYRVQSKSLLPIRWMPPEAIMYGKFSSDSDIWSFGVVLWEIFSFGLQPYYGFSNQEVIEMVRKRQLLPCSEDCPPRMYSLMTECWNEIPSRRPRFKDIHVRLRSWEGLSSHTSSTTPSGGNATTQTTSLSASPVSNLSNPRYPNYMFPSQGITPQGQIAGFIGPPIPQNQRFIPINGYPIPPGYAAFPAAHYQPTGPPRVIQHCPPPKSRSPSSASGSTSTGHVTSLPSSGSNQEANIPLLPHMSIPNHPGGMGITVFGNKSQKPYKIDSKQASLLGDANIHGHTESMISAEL

Row | Binder | proliferation index with MDA-MB-231 target cells, fold against the non-humanized R12 CAR [fold]
1 | B1 | ~2

Target: T1, Recombinant aggregated ROR1 protein, AlexaFluor647-labeled (UniProt Q01973 30-403, limits assumed, labeled with AlexaFluor647)
T1 construct: Soluble labelled protein used to stain CAR T cells; also called ROR1 antigen
Assay: flow cytometry; CAR T cells stained with 5.3 µg/ml AlexaFluor647-labeled aggregated ROR1
Protocol: Afterwards the cells were washed with PBS, 0.25% FCS and analyzed by flow cytometry.
Recombinant aggregated ROR1 protein was labeled with the AlexaFluor647 labeling kit (ThermoFisher Scientific, MA) and used to stain T cells expressing ROR1 CARs. The T cells were washed once in PBS, 0.25% FCS and then resuspended in the same buffer containing a final concentration of 5.3 μg/ml labeled ROR1 protein and monoclonal αEGFRt antibody. After an incubation time of 15 min the cells were washed with an excess of PBS, 0.25% FCS and analyzed by flow cytometry.

T1 sequence (Q01973 30-403 limits assumed): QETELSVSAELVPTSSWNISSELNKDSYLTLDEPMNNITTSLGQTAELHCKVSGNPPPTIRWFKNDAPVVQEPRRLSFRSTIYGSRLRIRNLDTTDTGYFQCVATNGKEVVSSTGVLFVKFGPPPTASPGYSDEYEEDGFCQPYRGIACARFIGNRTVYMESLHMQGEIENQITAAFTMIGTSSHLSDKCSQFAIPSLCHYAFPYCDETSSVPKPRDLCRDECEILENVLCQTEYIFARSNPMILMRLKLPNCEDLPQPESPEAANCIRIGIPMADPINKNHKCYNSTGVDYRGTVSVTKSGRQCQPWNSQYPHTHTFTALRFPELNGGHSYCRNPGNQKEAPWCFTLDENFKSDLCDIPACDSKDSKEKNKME

Row | Binder | percentage of T cells with a distinct AlexaFluor647 signal [%] | percentage of T cells with high AlexaFluor647 signal [%]
2 | B2 | 92.1 | 20
3 | B1 | 79 | 7.68
4 | B3 | 47.6 | 0.7
5 | B4 | 62.7 | 2.61
